Target: bovine serum albumin (BSA) (bovine, UniProt P02769 25-607)
Assay: ELISA on BSA-coated microtitre plates, detection with peroxidase-labelled RGS-6xHis antibody
Procedure: For the ELISA detection of the specific β2-glycoprotein-binding activity of the scFv-CAD reaction module, serial dilutions of scFv-CAD in the indicated concentration were applied to microtitre plates coated with β2-glycoprotein and, for control purposes, with bovine serum albumin (BSA). The binding was determined using a peroxidase-labelled RGS-6×-His antibody (Qiagen, Hilden) and a tetramethylbenzidine (TMB) colour reaction by measurement of the O.D. 450.
Characterisation of the binding reaction of the CAD-IgG-CH3-Knob02 modubody to the target β2-glycoprotein. […] The binding was determined using a peroxidase-labelled RGS-6×-His antibody (Qiagen, Hilden) and a tetramethylbenzidine (TMB) colour reaction by measurement of the O.D. 450 nm.
In order to determine whether the CAD-IgG-CH3-Knob02 modubody has retained the β2-glycoprotein-binding activity of the scFv-CAD, purified CAD-IgG-CH3-Knob02 preparations were tested by immunoassays. […] The microtitre plates were washed and the binding of the CAD-IgG-CH3-Knob02 modubody was determined using a peroxidase-labelled RGS-6×-His antibody (Qiagen, Hilden) and a tetramethylbenzidine (TMB) colour reaction by measurement of the O.D. 450 nm. […] Specific binding to β2-glycoprotein was detected even at a concentration of the CAD-IgG-CH3-Knob02 modubody of 19 ng/ml.

Chain of bovine serum albumin (BSA) (P02769 25-607 limits assumed): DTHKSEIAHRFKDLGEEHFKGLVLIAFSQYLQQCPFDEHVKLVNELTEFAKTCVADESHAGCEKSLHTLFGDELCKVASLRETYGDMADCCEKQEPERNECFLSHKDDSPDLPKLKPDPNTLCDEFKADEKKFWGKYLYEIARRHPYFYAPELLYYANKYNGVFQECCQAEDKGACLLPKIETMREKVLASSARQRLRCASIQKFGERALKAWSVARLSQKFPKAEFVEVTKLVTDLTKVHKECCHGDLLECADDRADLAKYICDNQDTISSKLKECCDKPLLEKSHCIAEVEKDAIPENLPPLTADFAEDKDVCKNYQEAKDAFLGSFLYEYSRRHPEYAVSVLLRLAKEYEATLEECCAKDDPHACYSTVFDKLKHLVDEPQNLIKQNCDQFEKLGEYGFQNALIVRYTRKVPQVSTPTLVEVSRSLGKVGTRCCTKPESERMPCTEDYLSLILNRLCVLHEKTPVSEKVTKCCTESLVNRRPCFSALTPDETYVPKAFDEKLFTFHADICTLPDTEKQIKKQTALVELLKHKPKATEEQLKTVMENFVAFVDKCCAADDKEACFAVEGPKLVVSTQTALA

| Binder | binding result |
| --- | --- |
| single-chain CAD-IgG-CH3-Knob02 modubody (designed binder, Domain order is VL-linker-VH-linker-IgG-CH3-Knob02, 44 kDa, made in E. coli; also called CAD-IgG-CH3-Knob32 (as misprinted once); not shown: RGS-6xHis tag from vector pQE-80L) LVPRGSDVLMTQTPLSLPVSLGDQASISCRSSQSIVHSNGNTYLEWYLQKPGQSPKLLIYKVSNRFSGVPDRFSGSGSGTDFTLKISRVEAEDLGVYYCFQGSHVPYTFGGGTKLEIKRTGSGSGGGGSGGGGSGGGGSSGGGGSGGGGSGGGGSGSGEVQLQQSGPELVKPGASVKISCKASGYTFTDYYMHWVRQRPGQGLEWIGEIYPGSGNTSYNEKFRGKATLTADKSSSTAYMQLSSLTSEDSAVYFCARGTLDYTMDYWGQGTSVTVSSGSGGGGSGGGGSGGGGSSGGGGSGGGGSGGGGSGSGEPQVYTLPPSREEMTKNQVSLYCLVKGFYPSDIAVEWESNGQPENNYKTYPPVLDSDGSFYLYSKLTVDKSRWQQGNVFSCSVMHEALHNHYTQKSLSL | no binding (tested: 0.019-10 µg/ml) |
| scFv-CAD β2-glycoprotein-binding module (artificial protein sequence scFv-RP-CAD-P) (scFv, Expressed in E. coli from pQE-80L as a 30 kDa protein; also called CAD-scFv; scFV-CAD reaction module; not shown: RGS-6xHis tag from expression vector pQE-80L (detected with anti-RGS-6xHis antib)) scFv: LVPRGSDVLMTQTPLSLPVSLGDQASISCRSSQSIVHSNGNTYLEWYLQKPGQSPKLLIYKVSNRFSGVPDRFSGSGSGTDFTLKISRVEAEDLGVYYCFQGSHVPYTFGGGTKLEIKRTGSGSGGGGSGGGGSGGGGSSGGGGSGGGGSGGGGSGSGEVQLQQSGPELVKPGASVKISCKASGYTFTDYYMHWVRQRPGQGLEWIGEIYPGSGNTSYNEKFRGKATLTADKSSSTAYMQLSSLTSEDSAVYFCARGTLDYTMDYWGQGTSVTVSS | no binding (tested: 0.019-10 µg/ml) |

— patent US20160046703A1 (ORGENTEC DIAGNOSTIKA, published 2016)
